Test results taken from PMC5553161.

Target: VAP-B (human (endogenous in Huh7)) (UniProt O95292)
Experiment: co-IP; lysates of Huh7 cells stably harboring wild-type, S225D or S225A SGRs immunoprecipitated with antibodies to NAP1L1, Bin1, VAP-A or VAP-B; Western blot for NS5A, quantified (n = 3)

Sequence of UniProt O95292 (O95292 whole entry): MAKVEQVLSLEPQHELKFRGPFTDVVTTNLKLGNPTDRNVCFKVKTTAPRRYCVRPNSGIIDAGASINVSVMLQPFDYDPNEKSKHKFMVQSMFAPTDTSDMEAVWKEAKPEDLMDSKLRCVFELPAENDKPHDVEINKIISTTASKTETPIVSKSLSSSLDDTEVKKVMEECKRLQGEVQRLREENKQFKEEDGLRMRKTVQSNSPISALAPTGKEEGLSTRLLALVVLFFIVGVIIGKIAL

In the case of “One-Strep-tagged (OST) NS5A S225A of hepatitis C virus JFH-1 (genotype 2a) (natural protein)”, the reduction in the level bound, against wild type is reported as 50%.
